This note sets out measurements from paper PMC11962113, “An unusual glycerol-3-phosphate dehydrogenase in Sulfolobus acidocaldarius elucidates the diversity of glycerol metabolism across Archaea” (Communications Biology, 2025).

Data set [1] addresses T1, Saci_2032 (G3PDH) (Sulfolobus acidocaldarius, UniProt Q4J7A2).
T1 construct: full length, N-terminal His tag (pET15b), E. coli Rosetta (DE3); homodimer with 2 FAD; without CoxG
Nature of the data set: absorption spectrum of bound FAD, […] nm, after SDS denaturation. The format is binding. The conditions noted are these: two FAD per homodimer; non-covalent per family; reduced by G3P at 70 °C.

Data set [2] concerns the target T2, Saci_1118 (G3PDH) (Sulfolobus acidocaldarius, UniProt Q4J9Q8).
T2 construct: full length, N-terminal His tag (pET15b), E. coli Rosetta (DE3); homodimer with 2 FAD; without CoxG
Described as above. The format is binding. To be noted: two FAD per homodimer; non-covalent per family; reduced by G3P at 70 °C.

Data set [3] concerns the molecule itself. The experiment in a line: SEC; Superose 6 Increase 10/300 GL, 50 mM TRIS-HCl pH 7.5, 250 mM NaCl; GKs 50 µg in 200 µL, G3PDHs 19 mg Saci_2032 or 6 mg Saci_1118 in 500 µL; calibrated with LMW and HMW gel filtration kits; native mass compared with subunit mass. (In general: In gel filtration, larger molecules generally elute earlier.)
Substrate in data set [4]: OCC(O)CO
The experiment in a line: purified protein. The format is biochemical, Sulfolobus acidocaldarius.

Substrate in data set [5]: Nc1ncnc2c1ncn2[C@@H]1O[C@H](COP(=O)(O)OP(=O)(O)OP(=O)(O)O)[C@@H](O)[C@H]1O
The experiment in a line: purified protein. The format is biochemical, Sulfolobus acidocaldarius. To be noted: 2 mM glycerol.

Substrate in data set [6]: COC1=C(OC)C(=O)C(CC=C(C)C)=C(C)C1=O
Nature of the data set: purified protein. The format is biochemical, Sulfolobus acidocaldarius. The conditions noted are these: 0.4 mM G3P, no DCPIP, 50 mM HEPES-KOH pH 6.5, 100 mM KCl, 70 °C.

Substrate in data set [7]: O=P(O)(O)OC[C@H](O)CO
The experiment in a line: purified protein. The format is biochemical, Sulfolobus acidocaldarius. The conditions noted are these: 0.06 mM DCPIP as electron acceptor, 50 mM HEPES-KOH pH 6.5, 100 mM KCl, 70 °C.

Setting [8] is: 5 mM ATP, 5 mM MgCl2, 0.1 M MOPS-KOH pH 6.5, 50 °C.
Where [9] appears, read: 1 mM ATP, 1 mM MgCl2, 0.1 M TRIS-HCl pH 7, 50 °C.

In the case of `Cc1cc2nc3c(=O)[nH]c(=O)nc-3n(C[C@H](O)[C@H](O)[C@H](O)COP(=O)(O)OP(=O)(O)OC[C@H]3O[C@@H](n4cnc5c(N)ncnc54)[C@H](O)[C@@H]3O)c2cc1C` [FAD], the “absorption spectrum of bound FAD, 450 nm, after SDS denaturation” value in data set [1] and in data set [2] was “a FAD content of two per homodimer was determined for both enzymes” each time.

B1: glycerol kinase Saci_2033 (enzyme, S. acidocaldarius DSM 639, UniProt Q4J7A3 1-497, looked up)
chain: MAEKYVIAIDEGTTSARAIVFDKELNILGIGQNEFTQYYPQPGYVEHSPEEIWQAQLLAINKALEKAKIDRNNILSIGITNQRETTVMWDTRTGKPIYNAIVWQDRRTAPITDYLKANYLRLIKDRTGLVPDPYFSASKIKWILDNIPNAREKAEKGEIKFGTIDTYLIWKLTNGKAHVTDYSNASRTMLFNIRKLEWDREILEILNIPEAILPDVKPSSEIYGYAEILNSSIPISGDAGDQQAALFGQIAFNQGDVKCTYGTGSFILLNTGSNLVSSNDLLTTIAWGVGKGITYALEGSIFITGAAVQWFRDGLRAIDVSDEIEPLAGSVPDNGGVYFVPAFTGLGAPYWDPYARGLIIGITRGTTKAHIARAILESMAYQTMDVLGIMQRDSGIKIDALKVDGGASKNDLLMQFQADILKMKVVRPKIMETTSMGVAMLAGLSVGYWNSMDELKQKWKIDQVFEPKMDDEYREKLYSGWKEAVRRALGWAKTIGG
notes: Glycerol kinase Saci_2033 of Sulfolobus acidocaldarius DSM 639, 497 amino acids, calculated mass 55.3 kDa; ORF amplified from genomic DNA; also called GK; GlpK
By stoichiometry N is commonly meant a count of units in the complex or per binding partner. As usually defined, the Km is the concentration of substrate that gives half-maximal velocity. Usually Vmax stands for the top rate of the reaction or transport when substrate is in excess. By kcat/Km is commonly meant the second-order rate constant that governs catalysis at low substrate concentration. B1: the “stoichiometry N” value in data set [3] amounted to 2. Besides, in data set [4] (setting [8]), the Michaelis constant (Km) was found to be 24 ± 4 µM, the Vmax turned out to be 88.2 µmol/min/mg and the specificity constant (kcat/Km) came to 1.31e+07 ± 2.2e+06 M⁻¹ s⁻¹. In addition, in data set [5] (0.1 M MOPS-KOH pH 6.5, 50 °C), the Michaelis-Menten constant (Km) amounted to 174 ± 19 µM, the maximum rate (Vmax) turned out to be 91 µmol/min/mg and the kcat/Km was 485000 ± 57100 M⁻¹ s⁻¹.

B2: glycerol-3-phosphate dehydrogenase Saci_1118 (His-tagged, recombinant) (enzyme, S. acidocaldarius DSM 639, UniProt Q4J9Q8 1-428, looked up)
chain: MKQNSSVIVIGGGATGLFTALDLSLRGINVTLVERGDIASGTSGKFHGLLHSGARYAVNDPESAKECKQENEVLSKIAPEFVRDTGGVFVGITEDDVNYSQRFLSALNSLGITNKVMDVEELIRREPFINKKSKIAIWVPDKVVYGYDLLATVALTASLNGAKILTYNEVKRVLREGNSVRRVEVKDNISGETKILNGDIIVNTAGPWAFRVIEMAGLGEIPLLPTAGIMVVMKEKLNSMVINRLRPPSDGDIIVPYGDSSIIGTTATIIPDPDNFEISDEDINMLIEEGAYMIPRLKEVKPERAYASVRPLIKNAEDGRGATRDFMIIDHEKVDSLDGLISVIGGKFTTSRLAGEKVSDMVSEKLGIREKSKTATIKLMSELDEKLLEKKRVPKVLVKMIRERKGSLDEDRYSTAMYILLSLLARGE
notes: GlpA-like FAD-dependent glycerol-3-phosphate dehydrogenase Saci_1118 of Sulfolobus acidocaldarius DSM 639, calculated mass 46.9 kDa; ORF amplified from genomic DNA; also called G3PDH; GlpA-like; source: E. coli Rosetta (DE3), pET15b-saci_1118, purified (Nickel-IDA)
With B2, the “stoichiometry N” value in data set [3] turned out to be 2. In data set [6], the Km came out at 86 ± 19 µM, the Vmax was determined as 18.7 µmol/min/mg and the kcat/Km was 170000 ± 39700 M⁻¹ s⁻¹. For the same molecule, in data set [7], the Km worked out at 19 ± 3 µM, the maximal velocity (Vmax) is 19.6 µmol/min/mg and the kcat/Km stood at 808000 ± 131000 M⁻¹ s⁻¹.

B3: glycerol kinase Saci_1117 (enzyme, S. acidocaldarius DSM 639, UniProt Q4J9R1 1-498, looked up)
chain: MSKYILAVDEGTTSARALVFDEDLNVISIAQTELTQYFPRPGYVEQNPEEIFEKQVSMIKKAVEKAKIEISQVSAIGIANQRETTIMWDSRSGRPVYNAVVWQDRRTSDITDWLKSNYLNLFKSKTGLIPDPYFSASKIKWILDNVPGVREKAERGEIKFGTVDTYLIWKLTNGKVHVTDYSNASRTMLFNIKKLEWDRDILEILEIPEAILPEVRSSSEVYGYAEPVGNIPISGDAGDQQAALFGQLGFSKGDVKCTYGTGSFILMNSGEEIYDSKDLLTTIAWKIGKDVKYALEGSIFTTGAAVQWVRDGLGLVSSSDEIESLASSVVDNGGVYFVPAFSGLGSPYWDPYARGLIIGISRGTSRGHIARAVLESIAYQVRDVIEVIKKDVGKEFVNVLKVDGGVSKNNLLMQFQADILGIRIVRPRVIETTSMGASMLAGLAVDYWSSLEELKSKWAVDREFIPSLQEDRRERLYKGWKEAVRRTIGWAREVETME
notes: Glycerol kinase Saci_1117 of Sulfolobus acidocaldarius DSM 639, 498 amino acids, calculated mass 55.6 kDa; ORF amplified from genomic DNA; The results call the protein C-terminally His-tagged; also called GK; GlpK homologue; source: S. acidocaldarius MW001, homologous overexpression (pSVAmalFX-saci_1117-SH10), purified (Strep-Tactin XT 4Flow column)
On to B3, for which the “stoichiometry N” value in data set [3] was found to be 2. For the same molecule, in data set [4] (setting [9]), the Michaelis constant (Km) worked out at 24 ± 1 µM, the Vmax was found to be 45.7 µmol/min/mg and the kcat/Km is 6.4e+06 ± 507000 M⁻¹ s⁻¹. Besides, in data set [5] (0.1 M TRIS-HCl pH 7, 50 °C), the Km worked out at 205 ± 24 µM, the Vmax was 50.8 µmol/min/mg and the specificity constant (kcat/Km) was found to be 229000 ± 28400 M⁻¹ s⁻¹.

B4: glycerol-3-phosphate dehydrogenase Saci_2032 (His-tagged, recombinant) (enzyme, S. acidocaldarius DSM 639, UniProt Q4J7A2 1-431, looked up)
chain: MEIKTSVLVIGGGANGLFTALDLALRGIDVTLVERRDIGSGTSGRFHGLLHSGARYAVTDPESAKECIQENNIISKIAPHAIRDTGGLFLGITKEDLEFLDKFLSSLKKLGIEHKIVDNNQVLQEEPYVNKDLKIAIWVPDKVVYGYDLLSSIAVTGSLNKARIMTYNEVTEFIRDGNSIKGVKVFDKITNQMNLIKSDIIINTSGPWAFKIITMAGLEEIPILPTAGIMAVFGKKVNNAVLNRLRPPSDGDIIVPYQDTSILGTTATIIEDPDNFTISDEDVKMLIKEGSQLVPELSKTRVIRTYASVRPLMRTSEDGRKASRDFTILDHEREDGVSGLISIIGGKFTTSRLVGEKVGDLVSEKLGVRAKSKTKETKLISPSEIDFEKYLEKIGISKIFLKSVMERRGSLDEERYKTVLYLLLSLIARGR
notes: GlpA-like FAD-dependent glycerol-3-phosphate dehydrogenase Saci_2032 of Sulfolobus acidocaldarius DSM 639, calculated mass 47.6 kDa; ORF amplified from genomic DNA; also called G3PDH; GlpA-like; source: E. coli Rosetta (DE3), pET15b-saci_2032, purified (Nickel-IDA)
Turning to B4, the “stoichiometry N” value in data set [3] turned out to be 2. In data set [6], the Km was 179 ± 75 µM, the maximal velocity (Vmax) came out at 21.1 µmol/min/mg and the kcat/Km came out at 128000 ± 58900 M⁻¹ s⁻¹. Further, in data set [7], the Km stood at 55 ± 9 µM, the Vmax is 44.5 µmol/min/mg and the kcat/Km is 642000 ± 111000 M⁻¹ s⁻¹.
